Data taken from US20240400715A1 (VIBRANT PHARMA, published 2024).

What was measured:
[1] = molecular target: T1, human CD3ε/δ (ACRO systems, CDD-H52W1) (human, UniProt P07766 23-126; P04234 22-105); experiment: BLI, antibody captured on AHC sensor, 30 C
T1 construct: bought recombinant heterodimer; also called human CD3 epsilon/delta; Human CD3ε/CD3δ

[2] = molecular target: T2, recombinant tumor antigen human EGFR (ACRO systems, EGR-H5222) (human, UniProt P00533 25-645); experiment: BLI, antibody captured on AHC sensor, 30 C
T2 construct: bought recombinant protein
Description: After the chip captures the bispecific antibodies, it was allowed to bind and dissociate with different concentrations of analytes to obtain the KD value of the interaction. The experimental parameters are as follows: Baseline1: 60s, Loading: 240s, Baseline2: 180s, Association: 240s, Dissociation: 600s, Loading Response: 1.9-2.1 (nm), High sensitivity kinetics: 2 Hz. Kinetic constants were derived based on 1:1 Langmuir binding to obtain equilibrium dissociation constants (KD).

[3] = molecular target: T1, human CD3ε/δ (ACRO systems, CDD-H52W1); experiment: serum-stability ELISA, Day 10 vs Day 0
Protocol: (§1) The samples to be tested were centrifuged at 4° C. at 12000 rpm for 30 minutes to remove the precipitate. 200 μl of each sample to be tested (0.5 mg/ml) was collected in a 1.5 ml Eppendorf tube. An equal volume of human serum (GEMINI, H2OYOOK) was added, mixed thoroughly, and the mixture was incubated in a 37° C. constant temperature CO₂ incubator. For a total of 10 days, 40 μl samples was aspirated every day and stored at −20° C.
(§2) Enzyme-linked immunosorbent assay (ELISA) was used to test the bispecific antibodies' binding to human CEA and human CD3 epsilon/delta antigen. The steps are as follows: the antigen human CD3ε/δ (ACRO systems, CDD-H52W1) and the recombinant tumor antigen human CEA (CEACAM-5/CD66e, ACRO systems, CE5-H5226) were diluted to 1 μg/ml with PBS, and then added to the 96-well plate at 100 μl per well. The wells were coated overnight at 4° C. After washing 3 times with 0.05% PBST, 200 μl 5% skimmed milk powder was added to each well and incubated at 37° C. for 2 h. After washing 3 times with 0.05% PBST, 100 μl primary antibody sample (10 μg/ml) was added to each well, and incubated at 37° C. for 2 h. After washing 3 times with 0.05% PBST, 100 μl (1:6000) diluted secondary antibody goat anti-human Fc-HRP (sigma, A2170) was added to each well, incubated at room temperature for 1 h. After washing 8 times with 0.05% PBST, 50 μl TMB color developing solution was added to each well, and incubated at room temperature for 10-15 min. 50 μl 1 mM HCl was added to each well to stop the color development. 450 nm Absorbance (OD) was read.
(§3) The binding of antibodies to antigen was calculated according to the following formula: Binding (%)=[(ODdayn−ODb)/(ODday0−ODb)]×100%. ODdayn: experimental well (the protein was stored in the serum for n days); ODday0: control well (the protein was not stored in the serum); ODb: blank well (no primary antibody added).

[4] = molecular target: T1, human CD3ε/δ (ACRO systems, CDD-H52W1); experiment: serum-stability ELISA, Day 1 vs Day 0
Protocol: as §1, §2, §3

[5] = molecular target: T1, human CD3ε/δ (ACRO systems, CDD-H52W1); experiment: serum-stability ELISA, Day 5 vs Day 0
Protocol: as §1, §2, §3

[6] = molecular target: T1, human CD3ε/δ (ACRO systems, CDD-H52W1); experiment: serum-stability ELISA, Day 6 vs Day 0
Protocol: as §1, §2, §3

[7] = molecular target: T1, human CD3ε/δ (ACRO systems, CDD-H52W1); experiment: serum-stability ELISA, Day 0 (reference)
[8] = molecular target: T1, human CD3ε/δ (ACRO systems, CDD-H52W1); experiment: serum-stability ELISA, Day 9 vs Day 0
Protocol: as §1, §2, §3

[9] = molecular target: T1, human CD3ε/δ (ACRO systems, CDD-H52W1); experiment: serum-stability ELISA, Day 2 vs Day 0
Protocol: as §1, §2, §3

[10] = molecular target: T1, human CD3ε/δ (ACRO systems, CDD-H52W1); experiment: serum-stability ELISA, Day 7 vs Day 0
Protocol: as §1, §2, §3

Binder | Kd [1] [nM] | koff [1] [s⁻¹] | kon [1] [M⁻¹ s⁻¹] | Kd [2] [nM] | koff [2] [s⁻¹] | kon [2] [M⁻¹ s⁻¹] | Binding % [3] [%] | Binding % [4] [%] | Binding % [5] [%] | Binding % [6] [%] | Binding % [7] [%] | Binding % [8] [%] | Binding % [9] [%] | Binding % [10] [%]
EGFR-CD3 bispecific antibody 401 (bispecific antibody, human IgG4 S228P, kappa, F234A L235A, VHH-hole chain assembled from VHH and hole-Fc with hinge) heavy: EVKLLESGGGLVQPKGSLKLSCAASGFTFNTYAMNWVRQAPGKGLEWVARIRSKYNNYATYYADSVKDRFTISRDDSQSILYLQMNNLKTEDTAMYYCVRHGNFGNSYVSWFAYWGQGTLVTVSSASTKGPSVFPLAPCSRSTSESTAALGCLVKDYFPEPVTVSWNSGALTSGVHTFPAVLQSSGLYSLSSVVTVPSSSLGTKTYTCNVDHKPSNTKVDKRVESKYGPPCPPCPAPEAAGGPSVFLFPPKPKDTLMISRTPEVTCVVVDVSQEDPEVQFNWYVDGVEVHNAKTKPREEQFNSTYRVVSVLTVLHQDWLNGKEYKCKVSNKGLPSSIEKTISKAKGQPREPQVYTLPPCQEEMTKNQVSLWCLVKGFYPSDIAVEWESNGQPENNYKTTPPVLDSDGSFFLYSRLTVDKSRWQEGNVFSCSVMHEALHNHYTQKSLSLSL QVQLQESGGGSVQAGGSLKLSCAASGRGFSRYAMGWFRQAPGQDREFVATISWTNSTDYADSVKGRFAISRDNAKNTAYLQMNSLKPEDTAVYYCAADKWASSTRSIDYDYWGQGIQVTVSSESKYGPPCPPCPAPEAAGGPSVFLFPPKPKDTLMISRTPEVTCVVVDVSQEDPEVQFNWYVDGVEVHNAKTKPREEQFNSTYRVVSVLTVLHQDWLNGKEYKCKVSNKGLPSSIEKTISKAKGQPREPQVCTLPPSQEEMTKNQVSLSCAVKGFYPSDIAVEWESNGQPENNYKTTPPVLDSDGSFFLVSRLTVDKSRWQEGNVFSCSVMHEALHNRFTQKSLSLSL light: QAVVTQESALTTSPGETVTLTCRSSTGAVTTSNYANWVQEKPDHLFTGLIGGTNKRAPGVPARFSGSLIGDKAALTITGAQTEDEAIYFCALWYSNLWVFGGGTKVEIKRTVAAPSVFIFPPSDEQLKSGTASVVCLLNNFYPREAKVQWKVDNALQSGNSQESVTEQDSKDSTYSLSSTLTLSKADYEKHKVYACEVTHQGLSSPVTKSFNRGEC | 2.71 | 0.000491 | 181000 | 2.07 | 0.00201 | 969000 | – | – | – | – | – | – | – | –
EGFR-CD3 bispecific antibody 404 (bispecific antibody, human IgG4 S228P, kappa, F234A L235A, VHH-knob chain assembled from VHH and knob-Fc with hinge) QVQLQESGGGSVQAGGSLKLSCAASGRGFSRYAMGWFRQAPGQDREFVATISWTNSTDYADSVKGRFAISRDNAKNTAYLQMNSLKPEDTAVYYCAADKWASSTRSIDYDYWGQGIQVTVSSESKYGPPCPPCPAPEAAGGPSVFLFPPKPKDTLMISRTPEVTCVVVDVSQEDPEVQFNWYVDGVEVHNAKTKPREEQFNSTYRVVSVLTVLHQDWLNGKEYKCKVSNKGLPSSIEKTISKAKGQPREPQVYTLPPCQEEMTKNQVSLWCLVKGFYPSDIAVEWESNGQPENNYKTTPPVLDSDGSFFLYSRLTVDKSRWQEGNVFSCSVMHEALHNHYTQKSLSLSL heavy: EVKLLESGGGLVQPKGSLKLSCAASGFTFNTYAMNWVRQAPGKGLEWVARIRSKYNNYATYYADSVKDRFTISRDDSQSILYLQMNNLKTEDTAMYYCVRHGNFGNSYVSWFAYWGQGTLVTVSSASTKGPSVFPLAPCSRSTSESTAALGCLVKDYFPEPVTVSWNSGALTSGVHTFPAVLQSSGLYSLSSVVTVPSSSLGTKTYTCNVDHKPSNTKVDKRVESKYGPPCPPCPAPEAAGGPSVFLFPPKPKDTLMISRTPEVTCVVVDVSQEDPEVQFNWYVDGVEVHNAKTKPREEQFNSTYRVVSVLTVLHQDWLNGKEYKCKVSNKGLPSSIEKTISKAKGQPREPQVCTLPPSQEEMTKNQVSLSCAVKGFYPSDIAVEWESNGQPENNYKTTPPVLDSDGSFFLVSRLTVDKSRWQEGNVFSCSVMHEALHNRFTQKSLSLSL light: QAVVTQESALTTSPGETVTLTCRSSTGAVTTSNYANWVQEKPDHLFTGLIGGTNKRAPGVPARFSGSLIGDKAALTITGAQTEDEAIYFCALWYSNLWVFGGGTKVEIKRTVAAPSVFIFPPSDEQLKSGTASVVCLLNNFYPREAKVQWKVDNALQSGNSQESVTEQDSKDSTYSLSSTLTLSKADYEKHKVYACEVTHQGLSSPVTKSFNRGEC | 2.65 | 0.000469 | 177000 | 2.2 | 0.00238 | 1.08e+06 | – | – | – | – | – | – | – | –
310 (TA5), configuration of FIG. 1X (bispecific antibody, VL row printed 'TAS VL', read as TA5 VL; full chains assembled from parts; not shown: kappa light chain constant domain (CL)) heavy: DVQLVQSGAEVKKPGASVKVSCKASGYTFTRYTMHWVRQAPGQGLEWIGYINPSRGYTNYADSVKGRFTITTDKSTSTAYMELSSLRSEDTATYYCARYYDDHYCLDYWGQGTTVTVSSASTKGPSVFPLAPCSRSTSESTAALGCLVKDYFPEPVTVSWNSGALTSGVHTFPAVLQSSGLYSLSSVVTVPSSSLGTKTYTCNVDHKPSNTKVDKRVESKYGPPCPPCPAPEAAGGPSVFLFPPKPKDTLMISRTPEVTCVVVDVSQEDPEVQFNWYVDGVEVHNAKTKPREEQFNSTYRVVSVLTVLHQDWLNGKEYKCKVSNKGLPSSIEKTISKAKGQPREPQVYTLPPCQEEMTKNQVSLWCLVKGFYPSDIAVEWESNGQPENNYKTTPPVLDSDGSFFLYSRLTVDKSRWQEGNVFSCSVMHEALHNHYTQKSLSLSLGGGGSGGGGSEVQLVESGGGFVQAGESLTLSCTSSTLTFTPYRMAWYRQAPGKQRDLVADISSGDGRTTNYADFAKGRFTISRDNIKNTVFLRMTNLKPEDTAVYYCNTFVSFVGIARSWGQGTQVTVSS ESKYGPPCPPCPAPEAAGGPSVFLFPPKPKDTLMISRTPEVTCVVVDVSQEDPEVQFNWYVDGVEVHNAKTKPREEQFNSTYRVVSVLTVLHQDWLNGKEYKCKVSNKGLPSSIEKTISKAKGQPREPQVCTLPPSQEEMTKNQVSLSCAVKGFYPSDIAVEWESNGQPENNYKTTPPVLDSDGSFFLVSRLTVDKSRWQEGNVFSCSVMHEALHNRFTQKSLSLSL light: DIVLTQSPATLSLSPGERATLSCRASQSVSYMNWYQQKPGKAPKRWIYDTSKVASGVPARFSGSGSGTDYSLTINSLEAEDAATYYCQQWSSNPLTFGGGTKVEIK | – | – | – | – | – | – | 101 | 96.1 | 92.2 | 93.2 | 100 | 90.3 | 90.2 | 89.2
311 (TA6), configuration of FIG. 1X (bispecific antibody, not shown: kappa light chain constant domain (CL)) heavy: EVQLVQSGAEVKKPGASVKVSCKASGYTFTNYYIHWVRQAPGQGLEWIGWIYPGDGNTKYNEKFKGRATLTADTSTSTAYLELSSLRSEDTAVYYCARDSYSNYYFDYWGQGTLVTVSSASTKGPSVFPLAPCSRSTSESTAALGCLVKDYFPEPVTVSWNSGALTSGVHTFPAVLQSSGLYSLSSVVTVPSSSLGTKTYTCNVDHKPSNTKVDKRVESKYGPPCPPCPAPEAAGGPSVFLFPPKPKDTLMISRTPEVTCVVVDVSQEDPEVQFNWYVDGVEVHNAKTKPREEQFNSTYRVVSVLTVLHQDWLNGKEYKCKVSNKGLPSSIEKTISKAKGQPREPQVYTLPPCQEEMTKNQVSLWCLVKGFYPSDIAVEWESNGQPENNYKTTPPVLDSDGSFFLYSRLTVDKSRWQEGNVFSCSVMHEALHNHYTQKSLSLSLGGGGSGGGGSEVQLVESGGGFVQAGESLTLSCTSSTLTFTPYRMAWYRQAPGKQRDLVADISSGDGRTTNYADFAKGRFTISRDNIKNTVFLRMTNLKPEDTAVYYCNTFVSFVGIARSWGQGTQVTVSS ESKYGPPCPPCPAPEAAGGPSVFLFPPKPKDTLMISRTPEVTCVVVDVSQEDPEVQFNWYVDGVEVHNAKTKPREEQFNSTYRVVSVLTVLHQDWLNGKEYKCKVSNKGLPSSIEKTISKAKGQPREPQVCTLPPSQEEMTKNQVSLSCAVKGFYPSDIAVEWESNGQPENNYKTTPPVLDSDGSFFLVSRLTVDKSRWQEGNVFSCSVMHEALHNRFTQKSLSLSL light: DIVMTQSPDSLAVSLGERATINCKSSQSLLNSRTRKNYLAWYQQKPGQPPKLLIYWASTRESGVPDRFSGSGSGTDFTLTISSLQAEDVAVYYCTQSFILRTFGQGTKVEIK | – | – | – | – | – | – | 101 | 105 | 103 | 104 | 100 | 100 | 105 | 101
312 (TA7), configuration of FIG. 1X (bispecific antibody, not shown: kappa light chain constant domain (CL)) heavy: EVQLVQSGAEVKKPGASVKVSCKASGFTFTSYYIHWVRQAPGQGLEWIGWIYPENDNTKYNEKFKDRVTITADTSTSTAYLELSSLRSEDTAVYYCARDGYSRYYFDYWGQGTLVTVSSASTKGPSVFPLAPCSRSTSESTAALGCLVKDYFPEPVTVSWNSGALTSGVHTFPAVLQSSGLYSLSSVVTVPSSSLGTKTYTCNVDHKPSNTKVDKRVESKYGPPCPPCPAPEAAGGPSVFLFPPKPKDTLMISRTPEVTCVVVDVSQEDPEVQFNWYVDGVEVHNAKTKPREEQFNSTYRVVSVLTVLHQDWLNGKEYKCKVSNKGLPSSIEKTISKAKGQPREPQVYTLPPCQEEMTKNQVSLWCLVKGFYPSDIAVEWESNGQPENNYKTTPPVLDSDGSFFLYSRLTVDKSRWQEGNVFSCSVMHEALHNHYTQKSLSLSLGGGGSGGGGSEVQLVESGGGFVQAGESLTLSCTSSTLTFTPYRMAWYRQAPGKQRDLVADISSGDGRTTNYADFAKGRFTISRDNIKNTVFLRMTNLKPEDTAVYYCNTFVSFVGIARSWGQGTQVTVSS ESKYGPPCPPCPAPEAAGGPSVFLFPPKPKDTLMISRTPEVTCVVVDVSQEDPEVQFNWYVDGVEVHNAKTKPREEQFNSTYRVVSVLTVLHQDWLNGKEYKCKVSNKGLPSSIEKTISKAKGQPREPQVCTLPPSQEEMTKNQVSLSCAVKGFYPSDIAVEWESNGQPENNYKTTPPVLDSDGSFFLVSRLTVDKSRWQEGNVFSCSVMHEALHNRFTQKSLSLSL light: DIVMTQSPDSLAVSLGERATINCKSSQSLLNSRTRKNYLAWYQQKPGQSPKLLIYWTSTRKSGVPDRFSGSGSGTDFTLTISSLQAEDVAVYYCKQSFILRTFGQGTKVEIK | – | – | – | – | – | – | 104 | 103 | 104 | 102 | 100 | 101 | 106 | 98.2
